Source: article PMC9120032, “SARS-CoV-2 ORF6 disrupts nucleocytoplasmic trafficking to advance viral replication” (Communications Biology, 2022)

Tests used:
[1] = target: T1, bacterially purified recombinant STAT1 protein (human, UniProt P42224 1-750); assay: pull-down; GST fusion proteins immobilised on glutathione-Sepharose 4B beads; recombinant proteins (100 pmol each) in 200 μL transport buffer (20 mM HEPES pH 7.3, 110 mM potassium acetate, 2 mM magnesium acetate, 1 mM EGTA, 1 mM DTT) with 0.1% Triton X-100, 4 °C, 1 h; five washes; western blot; settings: both partners purified
T1 construct: human STAT1, full length, subcloned into pGEX6P2 from the pcDNA5/FRT/3xFLAG expression vector; The methods tell in general that GST tags were cleaved with PreScission or thrombin; also called STAT1 recombinant protein; Flag-h-STAT1; source: bacterially expressed recombinant protein, purified; not shown: Flag, N-terminal, kept
T1 sequence: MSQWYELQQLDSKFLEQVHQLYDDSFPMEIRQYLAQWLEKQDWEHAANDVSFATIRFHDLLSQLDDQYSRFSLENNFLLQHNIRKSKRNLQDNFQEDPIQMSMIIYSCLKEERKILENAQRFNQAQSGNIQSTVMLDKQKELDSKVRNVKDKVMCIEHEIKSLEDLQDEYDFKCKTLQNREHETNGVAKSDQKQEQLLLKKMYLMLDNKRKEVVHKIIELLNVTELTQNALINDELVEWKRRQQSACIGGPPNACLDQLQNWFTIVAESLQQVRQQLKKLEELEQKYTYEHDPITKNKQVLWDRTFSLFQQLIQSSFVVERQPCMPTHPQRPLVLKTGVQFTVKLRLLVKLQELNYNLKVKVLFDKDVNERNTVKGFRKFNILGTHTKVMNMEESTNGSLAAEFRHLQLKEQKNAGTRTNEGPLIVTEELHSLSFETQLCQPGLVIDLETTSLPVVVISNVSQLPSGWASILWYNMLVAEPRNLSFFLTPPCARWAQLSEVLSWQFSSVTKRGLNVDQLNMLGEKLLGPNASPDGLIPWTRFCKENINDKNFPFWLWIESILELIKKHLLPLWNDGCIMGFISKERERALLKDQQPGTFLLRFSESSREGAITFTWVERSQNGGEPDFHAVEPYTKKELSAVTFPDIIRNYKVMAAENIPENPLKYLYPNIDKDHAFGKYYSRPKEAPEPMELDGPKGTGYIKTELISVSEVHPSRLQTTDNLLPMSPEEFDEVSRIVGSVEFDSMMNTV

[2] = target: T2, Flag-importin α1 recombinant protein (human, UniProt P52292 1-529); assay: as above; settings: both partners purified
T2 construct: human importin α1 (KPNA2); also called Flag-Impα1; FLAG-h-importin α1; source: bacterially expressed recombinant protein, purified; not shown: FLAG, N-terminal, kept

B1: GST-GFP fused with the C-terminal peptide of ORF6 wild type (49-61 amino acids) (peptide)
chain: YSQLDEEQPMEID
notes: SARS-CoV-2 ORF6, the 13 amino acids 49-61 of the C-terminal region (M0); also called GST-M0-GFP; M0; not shown: GST, N-terminal, kept; GFP, C-terminal, kept
Q: Does B1 bind [1]?
A: binds

B2: GST-GFP-fused ORF6 full-length protein (natural protein)
chain: MFHLVDFQVTIAEILLIIMRTFKVSIWNLDYIINLIIKNLSKSLTENKYSQLDEEQPMEID
notes: Held on glutathione Sepharose beads by its GST; also called GST-GFP-ORF6; GST-GFP-ORF6 wild type (WT); not shown: GST, N-terminal, kept; GFP, N-terminal, kept
Q: Does B2 bind [2]?
A: binds
